Reference: US20200392236A1 (JUNO THERAPEUTICS, published 2020)

How the values were obtained:
[1] = biological target: T1, human BCMA amino acid residues 1-54 (linear and conformational CLIPS peptide libraries) (human, UniProt Q02223 1-54); experiment: CLIPS peptide array ELISA
T1 sequence: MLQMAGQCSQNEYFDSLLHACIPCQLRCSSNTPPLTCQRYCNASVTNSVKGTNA
Protocol: (§1) Epitopes recognized, e.g., specifically bound to, by exemplary anti-BCMA scFv clones (BCMA-1, BCMA-5, BCMA-9, BCMA-23, BCMA-25, BCMA-26, BCMA-52 and BCMA-55 anti-BCMA scFvs), were assessed using full discontinuous epitope mapping by Chemical Linkage of Peptides onto Scaffolds (CLIPS; Pepscan Presto BV, Lelystad, The Netherlands; see, e.g., Timmerman et al., (2007) J. Mol. Recognit. 20: 283-329). Mapping was carried out using anti-BCMA scFv clones, such as those fused with mouse Fc (scFv-mFc).
(§2) Linear and conformational peptide libraries of amino acid residues 1-54 of human BCMA (set forth as amino acid residues 1-54 of SEQ ID NO:367) were generated based on a combinatorial matrix design. Linear peptides and structural mimetics including single loop, α-helix, β-turn, combinatorial and linear disulfide bridge mimics, and discontinuous epitope mimics were used, along with positive and negative control peptides, on an amino-functionalized solid support.
(§3) Affinities for binding to the peptides in the epitope library were determined using ELISA. The peptide arrays were incubated with a solution containing the scFv overnight at 4° C. Affinity information was used in iterative screens to define the sequence and conformation of epitopes. Heat maps of affinity information for two or more loops were generated.

[2] = biological target: T2, human BCMA (B-cell maturation antigen) on cells (human, UniProt Q02223 1-184); experiment: flow cytometry, hBCMA-overexpressing HEK293 compared with OPM2 and RPMI-8226 cells
T2 construct: whole, on cells; also called hBCMA; hBCMA/HEK293 cell line
T2 sequence (looked up): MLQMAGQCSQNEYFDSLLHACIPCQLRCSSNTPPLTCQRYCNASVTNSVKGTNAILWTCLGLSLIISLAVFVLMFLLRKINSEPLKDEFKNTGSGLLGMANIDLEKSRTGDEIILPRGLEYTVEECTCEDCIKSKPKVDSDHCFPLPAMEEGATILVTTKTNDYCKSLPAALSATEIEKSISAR
Protocol: Binding of exemplary scFv clones to hBMCA-overexpressing HEK293 cells as compared to OPM2 and RPMI-8226 cell lines that express moderate levels of endogenous BCMA was assessed.

[3] = biological target: T3, BCMA peptide 30SNTPPLTCQR39 (human); experiment: CLIPS peptide array ELISA
T3 construct: Peptide of the CLIPS library; recognised in a linear form
T3 peptide: SNTPPLTCQR
Protocol: as §1, §2, §3

[4] = biological target: T2, human BCMA (B-cell maturation antigen) …; experiment: flow cytometry on hBCMA-expressing HEK293 cells

B1: BCMA-26 anti-BCMA scFv (scFv)
scFv: EVQLVESGGGLVKPGGSLRLSCAASGFTFSDYYMSWIRQAPGKGLEWVSYISSSGSTIYYADSVKGRFTISRDNAKNSLYLQMNSLRAEDTAVYYCAKVDGPPSFDIWGQGTMVTVSSGGGGSGGGGSGGGGSSYVLTQPPSVSVAPGQTARITCGANNIGSKSVHWYQQKPGQAPMLVVYDDDDRPSGIPERFSGSNSGNTATLTISGVEAGDEADYFCHLWDRSRDHYVFGTGTKLTVL
notes: VH-(G4S)3-VL scFv
[1]
  binding result: binds

B2: BCMA-5 anti-BCMA scFv (scFv)
scFv: QVQLVQSGGGLVQPGRSLRLSCTASGFTFGDYAMSWFRQAPGKGLEWVGFIRSKAYGGTTEYAASVKGRFTISRDDSKSIAYLQMNSLKTEDTAVYYCAAWSAPTDYWGQGTLVTVSSGGGGSGGGGSGGGGSDIVMTQSPDSLAVSLGERATINCKSSQSVLYSSNNKNYLAWYQQKPGQPPKLLIYWASTRESGVPDRFSGSGSGTDFTLTISSLQAEDVAVYYCQQYYSTPWTFGQGTKVDIK
notes: VH-(G4S)3-VL scFv
[2]
  binding result: binds
[3]
  binding result: binds

B3: BCMA-52-scFv-mFc (Fc fusion)
chain: SYELTQPPSASGTPGQRVTMSCSGTSSNIGSHSVNWYQQLPGTAPKLLIYTNNQRPSGVPDRFSGSKSGTSASLAISGLQSEDEADYYCAAWDGSLNGLVFGGGTKLTVLGSRGGGGSGGGGSGGGGSLEMAEVQLVQSGAEVKKPGESLKISCKGSGYSFTSYWIGWVRQMPGKGLEWMGIIYPGDSDTRYSPSFQGHVTISADKSISTAYLQWSSLKASDTAMYYCARYSGSFDNWGQGTLVTVSS
notes: scFv fused with mouse Fc; The order scFv then Fc follows the label; also called BCMA-52 anti-BCMA scFv; not shown: mouse Fc (mFc)
[1]
  binding result: binds

B4: BCMA-16 anti-BCMA scFv (scFv)
scFv: EVQLVQSGPEVKKPGTSVKVSCKASGFTFTSSAMQWVRQARGQRLEWIGWIVVGSGNTNYAQKFQERVTITRDMSTSTAYMELSSLRSEDTAVYYCAAAPYYDILTGYYLWGQGTLVTVSSGGGGSGGGGSGGGGSQSALTQPPSASGTPGQRVTISCSGSGSNIGSNDVSWYQQIPGTAPKLLIYWNDQRPSGVPDRFSGSKSGTSASLAISGLQSEDEADYYCASWDDSLSGWVFGGGTKLTVL
notes: VH-(G4S)3-VL scFv
[4]
  binding result: no binding

B5: BCMA-55-scFv-mFc (Fc fusion)
chain: QSALTQPASVSASPGQSIAISCTGTSSDVGWYQQHPGKAPKLMIYEDSKRPSGVSNRFSGSKSGNTASLTISGLQAEDEADYYCSSNTRSSTLVFGGGTKLTVLGSRGGGGSGGGGSGGGGSLEMAEVQLVQSGAEMKKPGASLKLSCKASGYTFIDYYVYWMRQAPGQGLESMGWINPNSGGTNYAQKFQGRVTMTRDTSISTAYMELSRLRSDDTAMYYCARSQRDGYMDYWGQGTLVTVSS
notes: scFv fused with mouse Fc; The order scFv then Fc follows the label; also called BCMA-55 anti-BCMA scFv; not shown: mouse Fc (mFc)
[1]
  binding result: binds
